Assays:
[1] = system: Staphylococcus aureus ATCC 25923; assay type: cell-based; settings: n = 2
Description: (§1) The MIC was determined using a microdilution assay. In brief, bacterial strains were incubated for 18 to 24 h at 37 °C in an Müller-Hinton (MH) broth until an optical density of 0.15 to 0.30 (620 nm) was obtained. Next, 90 μL of Mueller-Hinton broth (MHB) was mixed with […], and serial dilutions (200, 100, 50, 25, 12.5 and 6.2) were prepared in 96-well microplates (final volume 100 μL/well). Then, 10 μL of inoculum (2 × 10^6 CFU/mL) was added to each well. The final volume in each well was 100 μL. Then they were incubated for 24 h at 37 °C; the absorbance at 620 nm was measured using an Asys Expert Plus ELISA reader. For determining the MBC, a small sample was taken from each well using an inoculation loop, and then was spread on MH agar plates and incubated overnight at 37 °C. MBC was considered on the plate which presented no bacterial growth. Each of these tests was performed twice (n = 2).

[2] = system: Escherichia coli ATCC 25922; assay type: cell-based; settings: n = 2
Description: as §1

[3] = microdilution, Mueller-Hinton broth, 24 h at 37 °C, absorbance 620 nm
[4] = sample of each well spread on MH agar, overnight 37 °C, no bacterial growth

MIC S. aureus ATCC 25923 [1, 3]: >50 µM | MIC E. coli ATCC 25922 [2, 3]: >50 µM
B1: BLF: bovine lactoferrin protein, control (protein, UniProt P24627 20-708, looked up)
Lactotransferrin: APRKNVRWCTISQPEWFKCRRWQWRMKKLGAPSITCVRRAFALECIRAIAEKKADAVTLDGGMVFEAGRDPYKLRPVAAEIYGTKESPQTHYYAVAVVKKGSNFQLDQLQGRKSCHTGLGRSAGWIIPMGILRPYLSWTESLEPLQGAVAKFFSASCVPCIDRQAYPNLCQLCKGEGENQCACSSREPYFGYSGAFKCLQDGAGDVAFVKETTVFENLPEKADRDQYELLCLNNSRAPVDAFKECHLAQVPSHAVVARSVDGKEDLIWKLLSKAQEKFGKNKSRSFQLFGSPPGQRDLLFKDSALGFLRIPSKVDSALYLGSRYLTTLKNLRETAEEVKARYTRVVWCAVGPEEQKKCQQWSQQSGQNVTCATASTTDDCIVLVLKGEADALNLDGGYIYTAGKCGLVPVLAENRKSSKHSSLDCVLRPTEGYLAVAVVKKANEGLTWNSLKDKKSCHTAVDRTAGWNIPMGLIVNQTGSCAFDEFFSQSCAPGADPKSRLCALCAGDDQGLDKCVPNSKEKYYGYTGAFRCLAEDVGDVAFVKNDTVWENTNGESTADWAKNLNREDFRLLCLDGTRKPVTEAQSCHLAVAPNHAVVSRSDRAAHVKQVLLHQQALFGKNGKNCPDKFCLFKSETKNLLFNDNTECLAKLGGRPTYEEYLGTEYVTAIANLKKCSTSPLLEACAFLTR
MBC S. aureus ATCC 25923 [1, 4]: >50 µM | MBC E. coli ATCC 25922 [2, 4]: >50 µM

From PMC6152618, “Antimicrobial Activity of Truncated and Polyvalent Peptides Derived from the FKCRRWQWRMKKGLA Sequence against Escherichia coli ATCC 25922 and Staphylococcus aureus ATCC 25923” (Molecules : A Journal of Synthetic Chemistry and Natural …, 2017)
